Measured values from US20220010021A1 (Sanofi, published 2022).

T1: human beta-Klotho (KLB) (human, UniProt Q86Z14 53-997)
T1 construct: Bought protein; also called human KLB; β-Klotho
T1 sequence (looked up): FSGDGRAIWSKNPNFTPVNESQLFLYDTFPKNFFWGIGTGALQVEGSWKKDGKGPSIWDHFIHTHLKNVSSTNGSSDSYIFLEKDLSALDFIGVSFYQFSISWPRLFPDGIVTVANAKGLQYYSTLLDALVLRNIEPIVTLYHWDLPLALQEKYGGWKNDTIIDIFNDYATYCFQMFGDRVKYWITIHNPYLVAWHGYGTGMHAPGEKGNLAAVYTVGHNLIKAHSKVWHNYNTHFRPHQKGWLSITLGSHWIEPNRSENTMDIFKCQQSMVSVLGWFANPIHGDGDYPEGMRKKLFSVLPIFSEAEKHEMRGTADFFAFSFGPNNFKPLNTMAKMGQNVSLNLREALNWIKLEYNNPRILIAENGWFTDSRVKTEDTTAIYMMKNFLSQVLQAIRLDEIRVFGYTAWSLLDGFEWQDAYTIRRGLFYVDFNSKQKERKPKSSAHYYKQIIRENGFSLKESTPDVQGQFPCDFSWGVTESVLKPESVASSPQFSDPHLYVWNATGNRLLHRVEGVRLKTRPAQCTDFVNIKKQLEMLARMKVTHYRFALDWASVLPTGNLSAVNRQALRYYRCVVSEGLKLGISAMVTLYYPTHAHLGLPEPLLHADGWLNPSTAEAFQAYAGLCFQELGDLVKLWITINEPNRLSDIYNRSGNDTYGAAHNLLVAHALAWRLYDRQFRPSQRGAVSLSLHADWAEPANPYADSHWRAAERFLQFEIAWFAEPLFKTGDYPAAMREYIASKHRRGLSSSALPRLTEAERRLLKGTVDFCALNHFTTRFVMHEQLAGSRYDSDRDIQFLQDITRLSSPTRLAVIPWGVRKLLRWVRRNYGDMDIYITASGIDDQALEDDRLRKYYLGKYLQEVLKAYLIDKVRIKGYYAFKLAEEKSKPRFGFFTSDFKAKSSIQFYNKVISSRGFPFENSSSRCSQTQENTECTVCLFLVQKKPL


Legend:
human beta-Klotho (KLB) = target: T1, human beta-Klotho (KLB); experiment: BLI off-rate screening (Octet), crude supernatant;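 further: supernatants tested at 25 µg/mL, dissociation from biosensors recorded in D-PBS with 0.1% BSA over 1800 s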
[1] = target: cell surface receptor composed of FGFR1c and co-receptor beta-Klotho (KLB) (human, UniProt P11362 22-822; Q86Z14 1-1044); experiment: cell-based or functional assay; on Mean E max, Luciferase reporter gene assay: reference of the scale not given here
Sequence of cell surface receptor composed of FGFR1c and co-receptor beta-Klotho (KLB) (P11362 22-822, chain 1 of 2): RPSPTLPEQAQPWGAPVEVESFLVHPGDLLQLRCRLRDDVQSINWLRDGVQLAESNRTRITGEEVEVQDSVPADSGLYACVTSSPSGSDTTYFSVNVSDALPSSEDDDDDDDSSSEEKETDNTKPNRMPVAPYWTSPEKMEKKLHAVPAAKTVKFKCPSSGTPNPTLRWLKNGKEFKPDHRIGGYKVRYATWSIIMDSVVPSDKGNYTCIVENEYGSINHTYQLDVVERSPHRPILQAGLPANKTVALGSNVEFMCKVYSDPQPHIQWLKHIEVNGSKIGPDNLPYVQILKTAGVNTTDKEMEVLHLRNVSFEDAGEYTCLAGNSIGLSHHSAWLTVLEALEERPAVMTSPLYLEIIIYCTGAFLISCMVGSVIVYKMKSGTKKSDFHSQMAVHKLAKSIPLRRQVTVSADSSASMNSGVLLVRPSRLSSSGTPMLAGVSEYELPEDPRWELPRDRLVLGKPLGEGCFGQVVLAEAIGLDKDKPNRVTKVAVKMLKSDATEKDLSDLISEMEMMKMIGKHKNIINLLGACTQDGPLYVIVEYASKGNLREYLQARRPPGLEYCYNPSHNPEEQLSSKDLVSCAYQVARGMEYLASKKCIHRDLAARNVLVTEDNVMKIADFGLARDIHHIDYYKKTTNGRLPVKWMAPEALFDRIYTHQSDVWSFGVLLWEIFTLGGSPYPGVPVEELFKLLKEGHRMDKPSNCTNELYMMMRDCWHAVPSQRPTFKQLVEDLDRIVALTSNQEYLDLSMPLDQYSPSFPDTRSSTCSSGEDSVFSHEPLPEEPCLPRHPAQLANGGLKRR
Sequence of cell surface receptor composed of FGFR1c and co-receptor beta-Klotho (KLB) (Q86Z14 whole entry, chain 2 of 2): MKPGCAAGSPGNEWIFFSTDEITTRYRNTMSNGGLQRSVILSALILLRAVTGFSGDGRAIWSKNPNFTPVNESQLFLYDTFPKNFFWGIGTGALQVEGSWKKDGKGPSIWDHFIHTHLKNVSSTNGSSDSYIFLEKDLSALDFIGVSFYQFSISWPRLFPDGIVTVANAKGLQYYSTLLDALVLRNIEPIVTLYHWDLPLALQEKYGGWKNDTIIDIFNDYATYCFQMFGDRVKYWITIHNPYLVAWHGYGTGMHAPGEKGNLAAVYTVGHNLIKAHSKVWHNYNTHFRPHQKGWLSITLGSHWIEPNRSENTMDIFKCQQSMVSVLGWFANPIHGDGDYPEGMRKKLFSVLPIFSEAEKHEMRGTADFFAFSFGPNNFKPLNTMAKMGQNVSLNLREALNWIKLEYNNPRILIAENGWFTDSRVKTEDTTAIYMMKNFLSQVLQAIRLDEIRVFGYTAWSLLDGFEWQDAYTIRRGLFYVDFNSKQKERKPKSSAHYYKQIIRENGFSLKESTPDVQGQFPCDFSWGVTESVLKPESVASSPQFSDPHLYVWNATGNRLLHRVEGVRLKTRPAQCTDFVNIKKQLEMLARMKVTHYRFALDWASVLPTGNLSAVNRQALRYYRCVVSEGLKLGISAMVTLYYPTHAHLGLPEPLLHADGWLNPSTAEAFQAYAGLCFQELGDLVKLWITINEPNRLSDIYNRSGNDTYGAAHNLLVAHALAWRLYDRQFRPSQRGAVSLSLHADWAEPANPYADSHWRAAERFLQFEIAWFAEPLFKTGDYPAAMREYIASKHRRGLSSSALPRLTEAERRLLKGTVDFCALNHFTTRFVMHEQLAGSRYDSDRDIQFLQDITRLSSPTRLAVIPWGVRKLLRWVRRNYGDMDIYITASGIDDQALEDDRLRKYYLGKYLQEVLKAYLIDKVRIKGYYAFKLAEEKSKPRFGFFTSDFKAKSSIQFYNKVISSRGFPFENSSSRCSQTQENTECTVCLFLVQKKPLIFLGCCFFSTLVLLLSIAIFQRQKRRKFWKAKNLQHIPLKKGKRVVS

Binder	koff (human beta-Klotho (KLB)) [s⁻¹]	Mean E max, Luciferase reporter gene assay [1] [%]	Mean EC50, Luciferase reporter gene assay [1] [pM]
16H7 light chain variant S94M (antibody, IgG4, V domains shown, IgG4 backbone) VH: not shown VL: SYVLTQPPSVSVAPGQTARITCGGNNIGSESVHWYQQKPGQAPVLVVYDDSDRPSGIPERFSGSNSGNTATLTISRVEAGDEADYYCQVWDGNMDHVVFGGGTKLTVLG	1.2e-05	101	117
16H7 light chain variant V32I (antibody, IgG4, V domains shown, IgG4 backbone) VH: not shown VL: SYVLTQPPSVSVAPGQTARITCGGNNIGSESIHWYQQKPGQAPVLVVYDDSDRPSGIPERFSGSNSGNTATLTISRVEAGDEADYYCQVWDGNSDHVVFGGGTKLTVLG	2e-05	113	133
16H7 light chain variant V32Y (antibody, IgG4, V domains shown, IgG4 backbone) VH: not shown VL: SYVLTQPPSVSVAPGQTARITCGGNNIGSESYHWYQQKPGQAPVLVVYDDSDRPSGIPERFSGSNSGNTATLTISRVEAGDEADYYCQVWDGNSDHVVFGGGTKLTVLG	1.9e-05	106	103
16H7 light chain variant S94W (antibody, IgG4, V domains shown, IgG4 backbone) VH: not shown VL: SYVLTQPPSVSVAPGQTARITCGGNNIGSESVHWYQQKPGQAPVLVVYDDSDRPSGIPERFSGSNSGNTATLTISRVEAGDEADYYCQVWDGNWDHVVFGGGTKLTVLG	4.3e-05	103	159
16H7 light chain variant S94V (antibody, IgG4, V domains shown, IgG4 backbone) VH: not shown VL: SYVLTQPPSVSVAPGQTARITCGGNNIGSESVHWYQQKPGQAPVLVVYDDSDRPSGIPERFSGSNSGNTATLTISRVEAGDEADYYCQVWDGNVDHVVFGGGTKLTVLG	2.8e-05	108	119
16H7 light chain variant V32Q (antibody, IgG4, V domains shown, IgG4 backbone) VH: not shown VL: SYVLTQPPSVSVAPGQTARITCGGNNIGSESQHWYQQKPGQAPVLVVYDDSDRPSGIPERFSGSNSGNTATLTISRVEAGDEADYYCQVWDGNSDHVVFGGGTKLTVLG	0.00025	91	166
16H7 light chain variant V32N (antibody, IgG4, V domains shown, IgG4 backbone) VH: not shown VL: SYVLTQPPSVSVAPGQTARITCGGNNIGSESNHWYQQKPGQAPVLVVYDDSDRPSGIPERFSGSNSGNTATLTISRVEAGDEADYYCQVWDGNSDHVVFGGGTKLTVLG	4.4e-05	104	123
16H7 light chain variant S94T (antibody, IgG4, V domains shown, IgG4 backbone) VH: not shown VL: SYVLTQPPSVSVAPGQTARITCGGNNIGSESVHWYQQKPGQAPVLVVYDDSDRPSGIPERFSGSNSGNTATLTISRVEAGDEADYYCQVWDGNTDHVVFGGGTKLTVLG	3.2e-05	109	116
16H7 light chain variant V32A (antibody, IgG4, V domains shown, IgG4 backbone) VH: not shown VL: SYVLTQPPSVSVAPGQTARITCGGNNIGSESAHWYQQKPGQAPVLVVYDDSDRPSGIPERFSGSNSGNTATLTISRVEAGDEADYYCQVWDGNSDHVVFGGGTKLTVLG	4.7e-05	108	144
16H7 light chain variant V32G (antibody, IgG4, V domains shown, IgG4 backbone) VH: not shown VL: SYVLTQPPSVSVAPGQTARITCGGNNIGSESGHWYQQKPGQAPVLVVYDDSDRPSGIPERFSGSNSGNTATLTISRVEAGDEADYYCQVWDGNSDHVVFGGGTKLTVLG	6.5e-05	103	240
16H7 light chain variant V32H (antibody, IgG4, V domains shown, IgG4 backbone) VH: not shown VL: SYVLTQPPSVSVAPGQTARITCGGNNIGSESHHWYQQKPGQAPVLVVYDDSDRPSGIPERFSGSNSGNTATLTISRVEAGDEADYYCQVWDGNSDHVVFGGGTKLTVLG	7.3e-05	100	147
16H7 light chain variant V32W (antibody, IgG4, V domains shown, IgG4 backbone) VH: not shown VL: SYVLTQPPSVSVAPGQTARITCGGNNIGSESWHWYQQKPGQAPVLVVYDDSDRPSGIPERFSGSNSGNTATLTISRVEAGDEADYYCQVWDGNSDHVVFGGGTKLTVLG	0.00023	102	145
16H7 light chain variant V97C (antibody, IgG4, V domains shown, IgG4 backbone) VH: not shown VL: SYVLTQPPSVSVAPGQTARITCGGNNIGSESVHWYQQKPGQAPVLVVYDDSDRPSGIPERFSGSNSGNTATLTISRVEAGDEADYYCQVWDGNSDHCVFGGGTKLTVLG	0.00023	104	190
16H7 light chain variant V32L (antibody, IgG4, V domains shown, IgG4 backbone) VH: not shown VL: SYVLTQPPSVSVAPGQTARITCGGNNIGSESLHWYQQKPGQAPVLVVYDDSDRPSGIPERFSGSNSGNTATLTISRVEAGDEADYYCQVWDGNSDHVVFGGGTKLTVLG	4.9e-05	104	126
16H7 light chain variant V32K (antibody, IgG4, V domains shown, IgG4 backbone) VH: not shown VL: SYVLTQPPSVSVAPGQTARITCGGNNIGSESKHWYQQKPGQAPVLVVYDDSDRPSGIPERFSGSNSGNTATLTISRVEAGDEADYYCQVWDGNSDHVVFGGGTKLTVLG	2.6e-05	101	158
16H7 light chain variant S94N (antibody, IgG4, V domains shown, IgG4 backbone) VH: not shown VL: SYVLTQPPSVSVAPGQTARITCGGNNIGSESVHWYQQKPGQAPVLVVYDDSDRPSGIPERFSGSNSGNTATLTISRVEAGDEADYYCQVWDGNNDHVVFGGGTKLTVLG	3.3e-05	103	133
16H7 light chain variant V32M (antibody, IgG4, V domains shown, IgG4 backbone) VH: not shown VL: SYVLTQPPSVSVAPGQTARITCGGNNIGSESMHWYQQKPGQAPVLVVYDDSDRPSGIPERFSGSNSGNTATLTISRVEAGDEADYYCQVWDGNSDHVVFGGGTKLTVLG	9.5e-05	103	135
16H7 light chain variant S94Y (antibody, IgG4, V domains shown, IgG4 backbone) VH: not shown VL: SYVLTQPPSVSVAPGQTARITCGGNNIGSESVHWYQQKPGQAPVLVVYDDSDRPSGIPERFSGSNSGNTATLTISRVEAGDEADYYCQVWDGNYDHVVFGGGTKLTVLG	6.2e-05	100	98
16H7 light chain variant S94R (antibody, IgG4, V domains shown, IgG4 backbone) VH: not shown VL: SYVLTQPPSVSVAPGQTARITCGGNNIGSESVHWYQQKPGQAPVLVVYDDSDRPSGIPERFSGSNSGNTATLTISRVEAGDEADYYCQVWDGNRDHVVFGGGTKLTVLG	5.7e-05	104	123
16H7 light chain variant V32F (antibody, IgG4, V domains shown, IgG4 backbone) VH: not shown VL: SYVLTQPPSVSVAPGQTARITCGGNNIGSESFHWYQQKPGQAPVLVVYDDSDRPSGIPERFSGSNSGNTATLTISRVEAGDEADYYCQVWDGNSDHVVFGGGTKLTVLG	4.1e-05	100	102
16H7 light chain variant V32S (antibody, IgG4, V domains shown, IgG4 backbone) VH: not shown VL: SYVLTQPPSVSVAPGQTARITCGGNNIGSESSHWYQQKPGQAPVLVVYDDSDRPSGIPERFSGSNSGNTATLTISRVEAGDEADYYCQVWDGNSDHVVFGGGTKLTVLG	5.1e-05	102	124
16H7 light chain variant V32T (antibody, IgG4, V domains shown, IgG4 backbone) VH: not shown VL: SYVLTQPPSVSVAPGQTARITCGGNNIGSESTHWYQQKPGQAPVLVVYDDSDRPSGIPERFSGSNSGNTATLTISRVEAGDEADYYCQVWDGNSDHVVFGGGTKLTVLG	7e-05	107	107
16H7 light chain variant V32D (antibody, IgG4, V domains shown, IgG4 backbone) VH: not shown VL: SYVLTQPPSVSVAPGQTARITCGGNNIGSESDHWYQQKPGQAPVLVVYDDSDRPSGIPERFSGSNSGNTATLTISRVEAGDEADYYCQVWDGNSDHVVFGGGTKLTVLG	0.00025	92	141
16H7 light chain variant V32C (antibody, IgG4, V domains shown, IgG4 backbone) VH: not shown VL: SYVLTQPPSVSVAPGQTARITCGGNNIGSESCHWYQQKPGQAPVLVVYDDSDRPSGIPERFSGSNSGNTATLTISRVEAGDEADYYCQVWDGNSDHVVFGGGTKLTVLG	5.1e-06	99	108
